PMC5651683 (The Biochemical journal, 2017)

Biological target: His6-Munc18a (rat, UniProt P61765 1-594)
Experiment: pull-down

Chain of His6-Munc18a (P61765 whole entry): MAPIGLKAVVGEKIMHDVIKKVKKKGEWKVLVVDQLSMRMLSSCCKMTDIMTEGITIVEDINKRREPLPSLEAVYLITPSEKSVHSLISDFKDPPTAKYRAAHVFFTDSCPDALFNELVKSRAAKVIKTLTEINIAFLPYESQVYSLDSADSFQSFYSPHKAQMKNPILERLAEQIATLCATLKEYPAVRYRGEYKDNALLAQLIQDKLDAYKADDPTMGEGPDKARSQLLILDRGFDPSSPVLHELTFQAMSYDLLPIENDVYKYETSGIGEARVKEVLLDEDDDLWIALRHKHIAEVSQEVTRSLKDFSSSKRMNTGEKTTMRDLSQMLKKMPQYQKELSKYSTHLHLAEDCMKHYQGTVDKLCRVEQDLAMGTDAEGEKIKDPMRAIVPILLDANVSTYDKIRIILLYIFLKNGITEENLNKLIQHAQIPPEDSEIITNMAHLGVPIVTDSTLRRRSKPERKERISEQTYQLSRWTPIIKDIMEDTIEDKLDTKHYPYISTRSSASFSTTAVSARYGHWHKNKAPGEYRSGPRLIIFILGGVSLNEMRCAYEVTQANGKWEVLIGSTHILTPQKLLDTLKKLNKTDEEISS

binding result: binds
B1: syntaxin3, full-length, liposome-anchored (natural protein, rat, UniProt Q08849 1-289, looked up)
chain: MKDRLEQLKAKQLTQDDDTDEVEIAIDNTAFMDEFFSEIEETRLNIDKISEHVEEAKKLYSIILSAPIPEPKTKDDLEQLTTEIKKRANNVRNKLKSMEKHIEEDEVRSSADLRIRKSQHSVLSRKFVEVMTKYNEAQVDFRERSKGRIQRQLEITGKKTTDEELEEMLESGNPAIFTSGIIDSQISKQALSEIEGRHKDIVRLESSIKELHDMFMDIAMLVENQGEMLDNIELNVMHTVDHVEKARDETKRAMKYQGQARKKLIIIIVIVVVLLGILALIIGLSVGLK
